Data published in PMC11148069 (2024).

T1: recombinant Xenopus Nup98 target (BLI) (Xenopus)
T1 chain: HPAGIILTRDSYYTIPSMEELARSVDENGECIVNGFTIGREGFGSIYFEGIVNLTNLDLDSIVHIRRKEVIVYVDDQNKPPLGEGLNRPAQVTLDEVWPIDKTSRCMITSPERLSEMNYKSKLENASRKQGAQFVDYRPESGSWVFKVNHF

T2: recombinant human Nup98 target (BLI) (human, UniProt P52948 1-880)
T2 chain: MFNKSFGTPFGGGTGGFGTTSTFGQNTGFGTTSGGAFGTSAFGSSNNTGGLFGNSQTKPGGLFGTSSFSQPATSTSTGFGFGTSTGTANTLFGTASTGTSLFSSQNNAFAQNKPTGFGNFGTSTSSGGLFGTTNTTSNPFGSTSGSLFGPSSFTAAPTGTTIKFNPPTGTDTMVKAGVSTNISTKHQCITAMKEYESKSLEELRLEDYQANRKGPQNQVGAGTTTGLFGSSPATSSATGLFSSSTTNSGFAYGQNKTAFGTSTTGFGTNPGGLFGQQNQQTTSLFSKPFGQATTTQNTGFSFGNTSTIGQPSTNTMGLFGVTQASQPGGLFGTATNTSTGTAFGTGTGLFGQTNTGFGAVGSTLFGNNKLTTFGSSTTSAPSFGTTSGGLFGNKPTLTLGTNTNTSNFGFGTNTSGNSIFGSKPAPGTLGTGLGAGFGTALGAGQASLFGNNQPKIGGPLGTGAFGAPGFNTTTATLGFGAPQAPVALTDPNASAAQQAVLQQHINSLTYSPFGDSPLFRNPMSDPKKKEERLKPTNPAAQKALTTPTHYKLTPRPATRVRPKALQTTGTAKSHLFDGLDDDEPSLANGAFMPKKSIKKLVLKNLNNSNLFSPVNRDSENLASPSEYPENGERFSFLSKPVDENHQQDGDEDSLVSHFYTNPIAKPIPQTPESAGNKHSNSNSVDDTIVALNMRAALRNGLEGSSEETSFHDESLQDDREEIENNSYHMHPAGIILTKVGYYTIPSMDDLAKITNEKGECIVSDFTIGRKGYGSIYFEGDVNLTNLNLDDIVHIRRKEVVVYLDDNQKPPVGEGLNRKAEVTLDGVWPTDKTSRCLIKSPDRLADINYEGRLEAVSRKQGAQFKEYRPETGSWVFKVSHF

T3: human Nup35, endogenous (human (endogenous in HeLa), UniProt Q8NFH5 1-326)
T3 chain: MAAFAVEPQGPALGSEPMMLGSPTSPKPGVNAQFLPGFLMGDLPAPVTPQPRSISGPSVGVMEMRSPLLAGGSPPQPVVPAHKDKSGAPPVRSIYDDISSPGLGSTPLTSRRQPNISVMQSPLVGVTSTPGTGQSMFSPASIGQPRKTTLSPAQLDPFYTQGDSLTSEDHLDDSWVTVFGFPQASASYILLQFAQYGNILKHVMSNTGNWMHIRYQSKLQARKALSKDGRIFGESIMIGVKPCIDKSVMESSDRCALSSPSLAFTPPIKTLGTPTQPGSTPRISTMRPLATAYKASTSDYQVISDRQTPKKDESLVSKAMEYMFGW

T4: Xenopus Nup35, endogenous (Xenopus (endogenous in egg extract))
T4 chain: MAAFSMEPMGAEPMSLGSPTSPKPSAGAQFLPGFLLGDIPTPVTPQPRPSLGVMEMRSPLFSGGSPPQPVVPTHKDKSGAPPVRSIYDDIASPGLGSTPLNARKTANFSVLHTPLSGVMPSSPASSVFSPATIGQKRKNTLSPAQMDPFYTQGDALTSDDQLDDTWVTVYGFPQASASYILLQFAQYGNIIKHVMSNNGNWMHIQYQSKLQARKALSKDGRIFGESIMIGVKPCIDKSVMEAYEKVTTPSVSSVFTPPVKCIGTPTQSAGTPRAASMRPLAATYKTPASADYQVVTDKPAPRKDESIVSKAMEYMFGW

T5: recombinant Xenopus Nup93 target (BLI) (Xenopus, UniProt Q7ZX96 1-820)
T5 chain: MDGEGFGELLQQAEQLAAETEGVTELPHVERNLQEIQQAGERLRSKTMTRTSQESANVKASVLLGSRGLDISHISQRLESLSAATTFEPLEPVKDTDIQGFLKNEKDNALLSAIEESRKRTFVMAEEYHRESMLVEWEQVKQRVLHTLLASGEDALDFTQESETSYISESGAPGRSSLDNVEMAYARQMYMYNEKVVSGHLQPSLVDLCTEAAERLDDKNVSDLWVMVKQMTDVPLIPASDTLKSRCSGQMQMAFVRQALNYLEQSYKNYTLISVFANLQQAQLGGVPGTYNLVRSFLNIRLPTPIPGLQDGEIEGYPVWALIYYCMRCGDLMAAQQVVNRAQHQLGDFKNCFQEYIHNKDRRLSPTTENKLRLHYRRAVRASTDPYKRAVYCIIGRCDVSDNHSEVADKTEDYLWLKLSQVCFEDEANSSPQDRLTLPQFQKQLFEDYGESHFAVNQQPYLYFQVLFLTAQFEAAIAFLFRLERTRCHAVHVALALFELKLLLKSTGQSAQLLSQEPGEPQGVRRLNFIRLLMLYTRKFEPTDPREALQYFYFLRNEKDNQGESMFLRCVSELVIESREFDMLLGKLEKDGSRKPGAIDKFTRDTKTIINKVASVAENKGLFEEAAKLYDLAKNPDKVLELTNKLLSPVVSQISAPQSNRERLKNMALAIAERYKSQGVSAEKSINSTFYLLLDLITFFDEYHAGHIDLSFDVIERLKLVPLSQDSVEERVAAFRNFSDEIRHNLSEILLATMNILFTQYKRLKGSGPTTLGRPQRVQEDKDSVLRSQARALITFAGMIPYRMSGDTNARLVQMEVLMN

B1: recombinant human Nup93 target (BLI) (natural protein)
chain: MDTEGFGELLQQAEQLAAETEGISELPHVERNLQEIQQAGERLRSRTLTRTSQETADVKASVLLGSRGLDISHISQRLESLSAATTFEPLEPVKDTDIQGFLKNEKDNALLSAIEESRKRTFGMAEEYHRESMLVEWEQVKQRILHTLLASGEDALDFTQESEPSYISDVGPPGRSSLDNIEMAYARQIYIYNEKIVNGHLQPNLVDLCASVAELDDKSISDMWTMVKQMTDVLLTPATDALKNRSSVEVRMEFVRQALAYLEQSYKNYTLVTVFGNLHQAQLGGVPGTYQLVRSFLNIKLPAPLPGLQDGEVEGHPVWALIYYCMRCGDLLAASQVVNRAQHQLGEFKTWFQEYMNSKDRRLSPATENKLRLHYRRALRNNTDPYKRAVYCIIGRCDVTDNQSEVADKTEDYLWLKLNQVCFDDDGTSSPQDRLTLSQFQKQLLEDYGESHFTVNQQPFLYFQVLFLTAQFEAAVAFLFRMERLRCHAVHVALVLFELKLLLKSSGQSAQLLSHEPGDPPCLRRLNFVRLLMLYTRKFESTDPREALQYFYFLRDEKDSQGENMFLRCVSELVIESREFDMILGKLENDGSRKPGVIDKFTSDTKPIINKVASVAENKGLFEEAAKLYDLAKNADKVLELMNKLLSPVVPQISAPQSNKERLKNMALSIAERYRAQGISANKFVDSTFYLLLDLITFFDEYHSGHIDRAFDIIERLKLVPLNQESVEERVAAFRNFSDEIRHNLSEVLLATMNILFTQFKRLKGTSPSSSSRPQRVIEDRDSQLRSQARTLITFAGMIPYRTSGDTNARLVQMEVLMN
B2: xNup98-Nb1t (as added in the binding assay of Fig. 11C) (VHH)
VHH: QVQLVESGGGPVEAGGSLRLSCAASGRSFSNSVMAWFRQAPGKEREFLSVLNWSSGRTSIADSVKGRFTMSRDPAKITVYLQMNGLKPEDTAVYYCAASNRGSLYTLDNQNRYEDWGQGTQVTVSS
B3: xhNup35-Nb1t (VHH)
VHH: QVQLVESGGGLVQAGGSLRLSCVGTGNISSAYTMAWYRQAAGKEREVVAGILNGGSTHYADSVKGRFTISRDNAKNTVYLQMNSLQPEDTGVYCCHVVIESTRFVYDHYWGQGTRVTVSS
B4: xhNup98-Nb3i (VHH)
VHH: QVQLVESGGGLVQAGGSLRLSCAASGRTFSTYAMGWFRQAPGKEREFVSACSWSGGITRYADSVKGRFTISRDNAKNTVYLQMNSLKPEDTAVYYCASAASSAAYSGAYYYTSYYDYWGQGTQVTVSS
B5: xhNup98-Nb2i, biotinylated for BLI (VHH)
VHH: QVQLVESGGGLAKPGGSLRLSCVATGTFRSMEDVGWYRQAPGKDRELVAEITTLGKVTYADSVKGRFTISRDDAKNAVYLQMSDLKSEDTAVYYCNIEADQTKGIGYVVYPYWGQGTRVTVSS
modifications: Biotin-[PEG]3-maleimide on two ectopic cysteines
B6: xNup93-Nb2t (VHH)
VHH: DVQLVESGGGLVQPGGSLRLSCVASGFTFSRVGMGWVRQAPGKGLEWVSDINASGGTGYADSVKGRFAISRDNAKNTLYLQMNRLKPEDTAVYYCAKMMDTAMIEAGIIKPAGQGTQVTVSS
B7: xhNup93-Nb4i, biotinylated for BLI (VHH)
VHH: QVQLVESGGGVVQTGDSLMLSCTVSGHTIDNWAMGWFRQTPRKQREFVAAIDKRGTGAIYGNSVKGRFTVSRDNAKNMVYLRMNSLKPEDTAVYFCAVDQLNAGLGDVSYDYDYWGQGTQVTVSS
modifications: Biotin-[PEG]3-maleimide on two ectopic cysteines

Columns and labels:
Assay in all cases: BLI
xhNup93-Nb3t = target: xhNup93-Nb3t
[1] = target: T1, recombinant Xenopus Nup98 target (BLI)
[2] = target: T2, recombinant human Nup98 target (BLI)
human Nup35, endogenous = target: T3, human Nup35, endogenous
[3] = target: T4, Xenopus Nup35, endogenous
[4] = target: T5, recombinant Xenopus Nup93 target (BLI)
[5] = target: B1

| Kd [1] [pM] | Kd [2] [pM] | Binder | also measured |
| --- | --- | --- | --- |
| – | – | B1 | Kd (xhNup93-Nb3t): 1000 pM |
| 1700 | > 100000 | B2 | – |
| – | – | B3 | Kd (human Nup35, endogenous): 800 pM; Kd [3]: 500 pM |
| < 10 | < 10 | B4 | – |
| < 10 | 20 | B5 | – |
| – | – | B6 | Kd [4]: 4000 pM |
| – | – | B7 | Kd [5]: 3000 pM; Kd [4]: < 10 pM |
